Data reported in article PMC3430514.
Like-named read-outs stand apart in the source and are kept apart here.

T1: RIG-I helicase-RD (human, UniProt O95786 232-925)
T1 sequence: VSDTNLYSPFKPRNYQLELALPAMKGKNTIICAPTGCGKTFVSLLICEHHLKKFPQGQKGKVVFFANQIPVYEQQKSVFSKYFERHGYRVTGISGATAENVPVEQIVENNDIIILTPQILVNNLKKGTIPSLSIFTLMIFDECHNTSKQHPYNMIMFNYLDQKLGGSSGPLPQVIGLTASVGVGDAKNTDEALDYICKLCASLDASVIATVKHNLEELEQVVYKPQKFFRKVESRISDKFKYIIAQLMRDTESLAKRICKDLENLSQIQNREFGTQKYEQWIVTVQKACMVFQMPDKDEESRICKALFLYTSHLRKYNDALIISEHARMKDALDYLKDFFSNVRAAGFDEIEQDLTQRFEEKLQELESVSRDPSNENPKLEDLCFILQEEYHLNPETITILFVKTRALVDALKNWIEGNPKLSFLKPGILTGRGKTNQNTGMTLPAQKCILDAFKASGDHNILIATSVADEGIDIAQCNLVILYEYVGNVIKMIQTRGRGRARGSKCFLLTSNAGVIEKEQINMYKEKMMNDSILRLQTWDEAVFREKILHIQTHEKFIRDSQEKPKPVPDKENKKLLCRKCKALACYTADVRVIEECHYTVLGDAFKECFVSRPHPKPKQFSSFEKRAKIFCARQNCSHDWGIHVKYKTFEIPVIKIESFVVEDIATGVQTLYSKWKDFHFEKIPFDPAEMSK

T2: RIG-I helicase domain (human, UniProt O95786 232-794)
T2 sequence: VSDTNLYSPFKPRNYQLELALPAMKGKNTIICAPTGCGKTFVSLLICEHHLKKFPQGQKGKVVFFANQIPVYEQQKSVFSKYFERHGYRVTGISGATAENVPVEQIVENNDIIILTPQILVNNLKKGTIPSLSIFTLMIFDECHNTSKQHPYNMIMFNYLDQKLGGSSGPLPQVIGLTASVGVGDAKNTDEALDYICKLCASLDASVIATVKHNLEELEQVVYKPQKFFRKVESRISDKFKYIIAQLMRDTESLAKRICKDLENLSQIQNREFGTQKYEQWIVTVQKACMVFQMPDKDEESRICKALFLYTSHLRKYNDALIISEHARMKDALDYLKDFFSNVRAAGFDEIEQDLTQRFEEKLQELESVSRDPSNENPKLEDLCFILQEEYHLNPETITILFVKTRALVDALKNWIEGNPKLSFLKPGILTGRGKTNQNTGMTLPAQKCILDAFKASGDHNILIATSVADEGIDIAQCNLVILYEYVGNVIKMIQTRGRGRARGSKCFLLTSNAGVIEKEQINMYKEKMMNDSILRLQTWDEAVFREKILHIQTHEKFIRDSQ

T3: RIG-I RD (repressor domain) (human, UniProt O95786 795-925)
T3 sequence: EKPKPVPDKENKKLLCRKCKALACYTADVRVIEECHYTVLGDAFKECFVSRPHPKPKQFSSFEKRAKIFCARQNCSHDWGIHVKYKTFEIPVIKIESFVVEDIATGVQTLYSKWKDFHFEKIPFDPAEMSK

T4: RIG-I full-length (human, UniProt O95786 1-925)
T4 sequence: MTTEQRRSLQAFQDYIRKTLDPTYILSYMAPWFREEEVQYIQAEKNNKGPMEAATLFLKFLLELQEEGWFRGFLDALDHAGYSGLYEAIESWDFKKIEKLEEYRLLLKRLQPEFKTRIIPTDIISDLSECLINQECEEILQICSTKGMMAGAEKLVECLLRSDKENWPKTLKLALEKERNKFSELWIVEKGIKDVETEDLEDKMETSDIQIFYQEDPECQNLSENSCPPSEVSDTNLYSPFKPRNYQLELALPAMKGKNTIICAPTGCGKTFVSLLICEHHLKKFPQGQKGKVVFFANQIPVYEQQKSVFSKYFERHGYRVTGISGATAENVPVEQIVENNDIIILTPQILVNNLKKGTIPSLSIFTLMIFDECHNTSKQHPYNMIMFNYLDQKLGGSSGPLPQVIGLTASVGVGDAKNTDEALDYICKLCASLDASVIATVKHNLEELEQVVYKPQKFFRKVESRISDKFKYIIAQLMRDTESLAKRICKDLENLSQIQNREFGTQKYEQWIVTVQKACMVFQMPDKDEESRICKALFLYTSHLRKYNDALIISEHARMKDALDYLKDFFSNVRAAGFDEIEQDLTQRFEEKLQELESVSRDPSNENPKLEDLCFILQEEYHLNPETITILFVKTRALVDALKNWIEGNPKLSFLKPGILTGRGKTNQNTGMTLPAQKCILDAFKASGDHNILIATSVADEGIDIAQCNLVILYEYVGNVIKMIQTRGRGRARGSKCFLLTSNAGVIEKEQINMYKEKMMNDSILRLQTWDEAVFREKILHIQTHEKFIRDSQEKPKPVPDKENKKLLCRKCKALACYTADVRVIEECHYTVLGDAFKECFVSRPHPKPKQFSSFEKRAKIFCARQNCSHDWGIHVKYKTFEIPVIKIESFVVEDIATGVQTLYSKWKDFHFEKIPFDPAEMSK

B1: 14bp pal dsRNA (dsRNA)
RNA 1: CGACGCUAGCGUCG
RNA 2: CGACGCUAGCGUCG
modifications: 5-iodouridine derivative also crystallized
B2: 14bp dsRNA-F (dsRNA)
RNA 1: GGAGAGAACCGCCU
RNA 2: AGGCGGUUCUCUCC
modifications: 5'-OH

Legend:
RIG-I helicase-RD = biological target: T1, RIG-I helicase-RD; experiment: X-ray crystallography
RIG-I helicase domain [1] = biological target: T2, RIG-I helicase domain; experiment: fluorescence anisotropy
[2] = biological target: T3, RIG-I RD (repressor domain); experiment: fluorescence anisotropy
RIG-I full-length = biological target: T4, RIG-I full-length; experiment: fluorescence anisotropy
RIG-I helicase domain [3] = biological target: T2, RIG-I helicase domain; experiment: fluorescence anisotropy; remark: listed apart in the source

Binder | binding result (RIG-I helicase-RD) | Kd (RIG-I helicase domain [1]) [nM] | Kd [2] [nM] | Kd (RIG-I full-length) [nM] | Kd (RIG-I helicase domain [3]) [nM]
B1 | binds |  |  |  | 
B2 |  | 436 ± 121 | 2.6 ± 1.2 | 1.2 | 1300
